# Measured values taken from US20190352359A1 (IMMATICS BIOTECHNOLOGIES, published 2019).
# Target: T1, HLA-A*24
# T1 construct: Monomers captured on streptavidin plates; also called peptide-receptive MHC molecules; MHC complexes
# Experiment: UV peptide-exchange ELISA (anti-b2m); yield grade ++++ = >75%
# Text: Candidate peptides for T cell based therapies according to the present invention were further tested for their MHC binding capacity (affinity). The individual peptide-MHC complexes were produced by UV-ligand exchange, where a UV-sensitive peptide is cleaved upon UV-irradiation, and exchanged with the peptide of interest as analyzed. Only peptide candidates that can effectively bind and stabilize the peptide-receptive MHC molecules prevent dissociation of the MHC complexes. To determine the yield of the exchange reaction, an ELISA was performed based on the detection of the light chain (p2m) of stabilized MHC complexes. The assay was performed as generally described in Rodenko et al. (Rodenko et al., 2006)
# 96 well MAXISorp plates (NUNC) were coated over night with 2 ug/ml streptavidin in PBS at room temperature, washed 4× and blocked for 1 h at 37° C. in 2% BSA containing blocking buffer. Refolded HLA-A*02:01/MLA-001 monomers served as standards, covering the range of 15-500 ng/ml. Peptide-MHC monomers of the UV-exchange reaction were diluted 100-fold in blocking buffer. Samples were incubated for 1 h at 37° C., washed four times, incubated with 2 ug/ml HRP conjugated anti-β2m for 1h at 37° C., washed again and detected with TMB solution that is stopped with […]. Absorption was measured at 450 nm. Candidate peptides that show a high exchange yield (preferably higher than 50%, most preferred higher than 75%) are generally preferred for a generation and production of antibodies or fragments thereof, and/or T cell receptors or fragments thereof, as they show sufficient avidity to the MHC molecules and prevent dissociation of the MHC complexes.
row,Binder,peptide exchange yield
1,KYNRQSMTL (also called KYNRQSMTL) [APOB-080],> 75%
2,KFLGSKCSF (also called KFLGSKCSF) [HAS3-003],> 75%
3,LYITKVTTI (also called LYITKVTTI) [FSTL4-002],> 75%
4,RYADLLIYTY (also called RYADLLIYTY) [MYO3B-005],> 75%
5,LYHNWRHAF (also called LYHNWRHAF) [PDE11-002],> 75%
6,IYTDITYSF (also called IYTDITYSF) [CHRNA6-002],> 75%
7,VHMKDFFYF (also called VHMKDFFYF) [DYRK4-001],> 75%
8,RYENVSILF (also called RYENVSILF) [ADCY8-001],> 75%
9,HWSHITHLF (also called HWSHITHLF) [DPY19L1-003],> 75%
10,YYAADQWVF (also called YYAADQWVF) [CCR4-004],> 75%
11,KWKPSPLLF (also called KWKPSPLLF) [GPR126-002],> 75%
12,VYSDLHAFY (also called VYSDLHAFY) [MANEAL-004],> 75%
13,IYLLLPPVI (also called IYLLLPPVI) [OR51E2-004],> 75%
14,MYGIVIRTI (also called MYGIVIRTI) [NPSR-001],> 75%
15,FYPEVELNF (also called FYPEVELNF) [MMP1-009],> 75%
16,FYQPDLKYLSF (also called FYQPDLKYLSF) [NLRP4-003],> 75%
17,EYQQYHPSL (also called EYQQYHPSL) [CLEC4C-001],> 75%
18,TYIDTRTVFL (also called TYIDTRTVFL) [CAPN6-005],> 75%
19,NYSPVTGKF (also called NYSPVTGKF) [OTOL-001],> 75%
20,RYLEEHTEF (also called RYLEEHTEF) [MROH2A-003],> 75%
21,KLPTEWNVL (also called KLPTEWNVL) [AKAP13-005],> 75%
22,VYNNNSSRF (also called VYNNNSSRF) [MYO10-003],> 75%
23,FWFDSREISF (also called FWFDSREISF) [OR51E2-002],> 75%

row,Binder,peptide exchange yield
1,VYTVGHNLI (also called VYTVGHNLI) [KLB-003],> 75%
2,IFMGAVPTL (also called IFMGAVPTL) [LPAR3-001],> 75%
3,VYDYIPLLL (also called VYDYIPLLL) [MROH2A-005],> 75%
4,FYIRRLPMF (also called FYIRRLPMF) [CHRNA6-001],> 75%
5,IYANVTEMLL (also called IYANVTEMLL) [CYP27C-001],> 75%
6,IFMENAFEL (also called IFMENAFEL) [APOB-079],> 75%
7,EVYQKIILKF (also called EVYQKIILKF) [PASD-001],> 75%
8,VYLTWLPGL (also called VYLTWLPGL) [IFNLR-001],> 75%
9,NYMDTDNLMF (also called NYMDTDNLMF) [LOC1001246-002],> 75%
10,RYQSVIYPF (also called RYQSVIYPF) [AGTR2-002],> 75%
11,IYLVGGYSW (also called IYLVGGYSW) [KLHL14-007],> 75%
12,DYLLSWLLF (also called DYLLSWLLF) [CNR2-003],> 75%
13,TYETVMTFF (also called TYETVMTFF) [BTBD16-003],> 75%
14,KIYTTVLFANI (also called KIYTTVLFANI) [NPFFR2-003],> 75%
15,VYSDRQIYLL (also called VYSDRQIYLL) [ABCC11-006],> 75%
16,RYAHTLVTSVLF (also called RYAHTLVTSVLF) [ITIH6-003],> 75%
17,VLPLHFLPF (also called VLPLHFLPF) [HBG2-001],> 75%
18,KYVGEVFNI (also called KYVGEVFNI) [DMXL1-001],> 75%
19,IQNAILHLF (also called IQNAILHLF) [OR51B5-001],> 75%
20,NFYLFPTTF (also called NFYLFPTTF) [PNLD-001],> 75%
21,RFLDRGWGF (also called RFLDRGWGF) [ADAMTS12-005],> 75%
22,KMGRIVDYF (also called KMGRIVDYF) [GABRP-003],> 75%
23,SYTPLLSYI (also called SYTPLLSYI) [C1orf94-002],> 75%

# Results, then the binder that gave them:
row,peptide exchange yield,Binder
1,> 75%,SFISPRYSWLF (also called SFISPRYSWLF) [SPNS3-005]
2,> 75%,GYFGTASLF (also called GYFGTASLF) [SLC16A14-001]
3,> 75%,RYILEPFFI (also called RYILEPFFI) [SLC7A11-007]
4,> 75%,QYIPTFHVY (also called QYIPTFHVY) [SLC44A5-003]
5,> 75%,VYKWTEEKF (also called VYKWTEEKF) [TSPE-001]
6,> 75%,VYAVISNIL (also called VYAVISNIL) [TNR-003]
7,> 75%,AAFISVPLLI (also called AAFISVPLLI) [TAS2R38-002]
8,> 75%,EYIDEFQSL (also called EYIDEFQSL) [RTL-003]
9,> 75%,KFLTHDVLTELF (also called KFLTHDVLTELF) [TRPM8-009]
10,> 75%,PEYSLPVLTF (also called PEYSLPVLTF) [PTP-040]
11,> 75%,QYGFNYNKF (also called QYGFNYNKF) [PNLD-002]
12,> 75%,AFISVPLLI (also called AFISVPLLI) [TAS2R38-003]
13,> 75%,VYLASVAAF (also called VYLASVAAF) [SLC45A3-006]
14,> 75%,TYIDFVPYI (also called TYIDFVPYI) [TEX15-001]
15,> 75%,AYVTEFVSL (also called AYVTEFVSL) [SCN3A-001]
16,> 75%,VYCSLDKSQF (also called VYCSLDKSQF) [RTL-004]
17,> 75%,AYFVAMHLF (also called AYFVAMHLF) [TENM4-007]
18,> 75%,YFLPGPHYF (also called YFLPGPHYF) [SOX30-001]
19,> 75%,VYLDEKQHAW (also called VYLDEKQHAW) [TCL1A-005]
20,> 75%,IYMTTGVLL (also called IYMTTGVLL) [TDRD9-002]
21,> 75%,DYIQMIPEL (also called DYIQMIPEL) [RTL-002]
